The stoichiometry N is the number of molecules, sites or subunits per partner or assembly. A word on the Kd: it is the concentration at which binding is half-saturated. A low value points to tighter binding.

In data set [1] the target is ALX4 homeodomain V241R (V28R) (mouse cDNA (identical to human in this region, as the paper says)). In words: native gel or EMSA. In general terms: A gel shift assay detects complexes by their altered migration in electrophoresis.
Data set [2] deals with ALX4 homeodomain R215A (R2A) (mouse cDNA (identical to human in this region, as the paper says)). Nature of the data set: native gel or EMSA.
Data set [3] has as its target ALX4 homeodomain (aa 209-274) (mouse cDNA (identical to human in this region, as the paper says)). In words: crystal structure.
For data set [4] the target is unchanged. Nature of the data set: native gel or EMSA.
The target of data set [5] is ALX4 homeodomain R216A (R3A) (mouse cDNA (identical to human in this region, as the paper says)). Nature of the data set: native gel or EMSA.
For data set [6], the target named is ALX4 V241R (mouse cDNA (human protein sequence …, UniProt O35137 158-291, V229R)). In words: ITC. In general terms: ITC needs no label: the signal is the heat of the interaction.
Sequence of ALX4 V241R (mouse cDNA (O35137 158-291 V229R): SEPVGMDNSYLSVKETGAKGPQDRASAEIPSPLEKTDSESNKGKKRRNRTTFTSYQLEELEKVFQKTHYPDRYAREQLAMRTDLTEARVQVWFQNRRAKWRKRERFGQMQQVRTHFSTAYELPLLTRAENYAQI
Data set [7] concerns the target ALX4 R216A (mouse cDNA (human protein sequence …, UniProt O35137 158-291, R204A)). In words: ITC.
Data set [8] deals with ALX4 R216G (mouse cDNA (human protein sequence …, UniProt O35137 158-291, R204G)). Nature of the data set: ITC.
Sequence of ALX4 R216G (mouse cDNA (O35137 158-291 R204G): as the sequence (O35137 158-291 V229R) above, with R47G, R72V counted along it
The target in data set [9] is ALX4 R215A;R216A (mouse cDNA (human protein sequence …, UniProt O35137 158-291, R203A;R204A)). Nature of the data set: ITC.
Sequence of ALX4 R215A;R216A (mouse cDNA (O35137 158-291 R203A/R204A): as the sequence (O35137 158-291 V229R) above, with R46A, R47A, R72V counted along it
Data set [10] addresses ALX4 WT (ITC, mutant-series EMSA) (mouse cDNA (human protein sequence …, UniProt O35137 158-291)). Nature of the data set: ITC.
The target in data set [11] is ALX4 R215A (mouse cDNA (human protein sequence …, UniProt O35137 158-291, R203A)). Nature of the data set: ITC.
Sequence of ALX4 R215A (mouse cDNA (O35137 158-291 R203A): as the sequence (O35137 158-291 V229R) above, with R46A, R72V counted along it
Data set [12] concerns the target ALX4 R272P (mouse cDNA (human protein sequence …, UniProt O35137 158-291, R260P)). Nature of the data set: ITC.
Data set [13] concerns the target ALX4 R218Q (mouse cDNA (human protein sequence …, UniProt O35137 158-291, R206Q)). In words: ITC.
Data set [14] addresses ALX4 Q225E (mouse cDNA (human protein sequence …, UniProt O35137 158-291, Q213E)). Nature of the data set: ITC.
The target in data set [15] is ALX4 K211E (mouse cDNA (human protein sequence …, UniProt O35137 158-291, K199E)). In words: ITC.
Sequence of ALX4 K211E (mouse cDNA (O35137 158-291 K199E): as the sequence (O35137 158-291 V229R) above, with K42E, R72V counted along it

Sequence of ALX4 Q225E (mouse cDNA (O35137 158-291 Q213E): as the sequence (O35137 158-291 V229R) above, with Q56E, R72V counted along it
Sequence of ALX4 R272P (mouse cDNA (O35137 158-291 R260P): as the sequence (O35137 158-291 V229R) above, with R72V, R103P counted along it
Sequence of ALX4 R216A (mouse cDNA (O35137 158-291 R204A): as the sequence (O35137 158-291 V229R) above, with R47A, R72V counted along it
Sequence of ALX4 R218Q (mouse cDNA (O35137 158-291 R206Q): as the sequence (O35137 158-291 V229R) above, with R49Q, R72V counted along it
Sequence of ALX4 WT (ITC, mutant-series EMSA) (mouse cDNA (O35137 158-291, stated change not applied): as the sequence (O35137 158-291 V229R) above, with R72V counted along it

Regarding “ALX4 homeodomain V241R (V28R) (domain or fragment)”, the Tau (cooperativity factor on the P3 DNA site) in data set [1] turned out to be 0.327.

The molecule “ALX4 homeodomain R215A (R2A) (domain or fragment)” had a fold reduction of cooperativity (Tau on the P3 site) against wild type in data set [2] of 5 fold.

Turning to “ALX4 homeodomain (aa 209-274) (domain or fragment)”, in [3], the stoichiometry N worked out at 2. Also, in data set [4], the Tau (cooperativity factor on the P3 DNA site) was found to be 110 and the Tau (cooperativity factor on the P4 DNA site) came to 1.5.

“ALX4 homeodomain R216A (R3A) (domain or fragment)” gave a fold reduction of cooperativity (Tau on the P3 site) against wild type in data set [5] of 10 fold.

B1: 14-mer monomer site ITC duplex (dsDNA)
DNA 1: CGCTAATTAGCTCG
DNA 2: CGAGCTAATTAGCG
As for B1, the dissociation constant Kd is 7.45 ± 5.22 nM in data set [6]; 15.2 ± 4.63 nM in data set [7]; 41.8 ± 8.81 nM in data set [8]; 214 ± 39.8 nM in data set [9]; 15.5 ± 0.98 nM in [10]; 30.4 ± 18.5 nM in data set [11]. Moreover, the figures for the Kd in [12], in data set [14] and in data set [15] were 43.6 ± 12.1 nM, 52.5 ± 12.3 nM and 21.5 ± 7.68 nM, respectively. The binding result in data set [13] is reported as “no binding”.

The record behind these values is doi:10.1101/2024.09.10.612331.
